Patent publication US20110076342A1
Non-standard residues stand in square brackets, D forms with d. No end group written: not given here.

B1: R9-L128A (peptide)
peptide: RRRRRRRRRCCLGAPEQEY
B2: R9-L131A (peptide)
peptide: RRRRRRRRRCCLGIPEAEY
B3: R9-L126A (peptide)
peptide: RRRRRRRRRCCAGIPEQEY
B4: R9-L127A (peptide)
peptide: RRRRRRRRRCCLAIPEQEY
B5: R9-L130A (peptide)
peptide: RRRRRRRRRCCLGIPAQEY
B6: R9-caPep (D-nonaarginine linked caPeptide, …) (peptide)
peptide: [dR][dR][dR][dR][dR][dR][dR][dR][dR]CCLGIPEQEY
modifications: cysteine pairing not given here
B7: R9-L132A (peptide)
peptide: RRRRRRRRRCCLGIPEQAY
B8: R9-L129A (peptide)
peptide: RRRRRRRRRCCLGIAEQEY
B9: R9-L133A (peptide)
peptide: RRRRRRRRRCCLGIPEQEA

target: full length PCNA's binding partners; experiment: cell-based or functional assay

Row | % Dead Cells, MCF 7 (breast cancer) cells, 50 µM R9-caPeptide, 48 h, flow cytometry [%] | % Dead Cells, MCF 10A (non-malignant) breast cells, 50 µM R9-caPeptide, 48 h, flow cytometry [%] | apoptotic cells, U937 cells, 50 uM R9-caPep [%] | Binder | % cancer cell death, U937 cells, 30 µM peptide, 24 h, flow cytometry [%]
1 | – | – | – | B1 | 21
2 | – | – | – | B2 | 93
3 | – | – | – | B3 | 8
4 | – | – | – | B4 | 47
5 | – | – | – | B5 | 45
6 | 91.5 | 18.2 | 93 | B6 | 43
7 | – | – | – | B7 | 88
8 | – | – | – | B8 | 80
9 | – | – | – | B9 | 7
